Assay results as given in the supplement of paper PMC10201428.
± gives the standard deviation of the averaged measurements.

Legend:
[1] = system: VchCAST RNA-guided transposition machinery (E. coli BL21(DE3) host, lacZ target); test: relative integration efficiency (T-LR orientation) vs wild-type transposon end (log2 (normalized fold change)); transposon end mutated: right end (5 bp flank + 75 bp right end); higher = more efficient transposition
Outline: (§1)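 A T7-driven effector plasmid encoding a CRISPR array, tniQ-cas8-cas7-cas6 and tnsA-tnsB-tnsC was co-transformed into E. coli BL21(DE3) together with a pUC57 mini-transposon donor holding barcoded pools of 1549 left-end or 1849 right-end variants. Transformants were plated with 0.1 mM IPTG at 37°C for 18 h. Illumina sequencing of PCR-amplified input plasmids and genomic integration junctions gave barcode abundances, and relative integration efficiency is their output/input fold change, normalised to reference barcodes and log-transformed.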

[2] = system: VchCAST RNA-guided transposition machinery (E. coli BL21(DE3) host, lacZ target); test: relative integration efficiency (T-RL orientation) vs wild-type transposon end (log2 (normalized fold change)); transposon end mutated: right end (5 bp flank + 75 bp right end); higher = more efficient transposition
Outline: as §1

| Sequence | relative integration efficiency (log2) [1] | relative integration efficiency (log2) [2] |
| --- | --- | --- |
| ACATTTGTGGATCCAACCATAAAATGATAATTACACCCATAAATGGATCATTATCACACCCAATTTAACTATAACGCTCTGATCATAGTCAGACCAACATTGCTACGACCCGTATTCGCACCGACAC | 0.845 ± 0.06 | -1.79 ± 0.39 |
| ACATTTGTGGATCCAACCATAAAATGATAATTACACCCATAAATTCATAATTATCACACCCAATTTAACTATAACGCTCTGATCATAGTCAGACCAACATTGCTACGACCCGTATTCGCACCGACAC | 1.043 ± 0.0096 | -2.04 ± 0.41 |
| ACATTTGTGGATCCAACCATAAAATGATAATTACACCCATAAATTCATCATTATCACACCCAATTTAACTATAACGCTCTGATCATAGTCAGACCAACATTGCTACGACCCGTATTCGCACCGACAC | 1.15 ± 0.38 | -2.28 ± 0.22 |
| ACATTTGTGGATCCAACCATAAAATGATAATTACACCCATAAATTGATAATTATCACACCCAATTTAACTATAACGCTCTGATCATAGTCAGACCAACATTGCTACGACCCGTATTCGCACCGACAC | 2.06 ± 0.17 | -0.789 ± 0.2 |
| ACATTTGTGGATCCAACCATAAAATGATAATTACACCCATAAATTGATCATTATCACACCCAATTTAACTATAACGCTCTGATCATAGTCAGACCAACATTGCTACGACCCGTATTCGCACCGACAC | 1.72 ± 0.11 | -1.6 ± 0.2 |
| ACATTTGTGTATACAACCATAAAATGATAATTACACCCATAAATTGATAATTATCACACCCATAAATTGATATTGCCTCTGATCATAGTCAGACCAACATTGCTACGACCCGTATTCGCACCGACAC | -0.811 ± 0.61 | 0.00813 ± 0.2 |
| ACATTTGTGTCGACAACCATAAAATGATAATTACACCCATAAATTGATAATTATCACACCCATAAATTGATATTGCCTCTGATCATAGTCAGACCAACATTGCTACGACCCGTATTCGCACCGACAC | -2.89 ± 0.57 | -0.916 ± 0.027 |
| ACATTTGTTAAAAAAACCATACGTTGATTTTACGAAACCATACGCTGAAATAATCACACCCATAAATTGATATTGCCTCTGATCATAGTCAGACCAACATTGCTACGACCCGTATTCGCACCGACAC | -5.9 ± 0.37 | -5.94 ± 0.086 |
| ACATTTGTTCATACAACCATAAAACGATAATTACACCCATAAATGGATAATTATCACACCCAATTTAACTATAACGCTCTGATCATAGTCAGACCAACATTGCTACGACCCGTATTCGCACCGACAC | -0.438 ± 0.41 | -2.14 ± 0.3 |
| ACATTTGTTCATACAACCATAAAACGATAATTACACCCATAAATGGATCATTATCACACCCAATTTAACTATAACGCTCTGATCATAGTCAGACCAACATTGCTACGACCCGTATTCGCACCGACAC | -0.511 ± 0.011 | -2.16 ± 0.3 |
| ACATTTGTTCATACAACCATAAAACGATAATTACACCCATAAATTCATAATTATCACACCCAATTTAACTATAACGCTCTGATCATAGTCAGACCAACATTGCTACGACCCGTATTCGCACCGACAC | -0.844 ± 0.015 | -3 ± 0.52 |
| ACATTTGTTCATACAACCATAAAACGATAATTACACCCATAAATTCATCATTATCACACCCAATTTAACTATAACGCTCTGATCATAGTCAGACCAACATTGCTACGACCCGTATTCGCACCGACAC | -0.684 ± 0.17 | -2.49 ± 0.11 |
| ACATTTGTTCATACAACCATAAAACGATAATTACACCCATAAATTGATAATTATCACACCCAATTTAACTATAACGCTCTGATCATAGTCAGACCAACATTGCTACGACCCGTATTCGCACCGACAC | 1.42 ± 0.13 | -0.611 ± 0.28 |
| ACATTTGTTCATACAACCATAAAACGATAATTACACCCATAAATTGATCATTATCACACCCAATTTAACTATAACGCTCTGATCATAGTCAGACCAACATTGCTACGACCCGTATTCGCACCGACAC | -0.162 ± 0.59 | -2.19 ± 0.3 |
| ACATTTGTTCATACAACCATAAAATGATAATTACACCCATAAATGGATAATTATCACACCCAATTTAACTATAACGCTCTGATCATAGTCAGACCAACATTGCTACGACCCGTATTCGCACCGACAC | -0.42 ± 0.41 | -1.57 ± 0.27 |
| ACATTTGTTCATACAACCATAAAATGATAATTACACCCATAAATGGATAATTATCACCCCCAATTTAACTATAACGCTCTGATCATAGTCAGACCAACATTGCTACGACCCGTATTCGCACCGACAC | 0.23 ± 0.071 | -1 ± 0.35 |
| ACATTTGTTCATACAACCATAAAATGATAATTACACCCATAAATGGATCATTATCACACCCAATTTAACTATAACGCTCTGATCATAGTCAGACCAACATTGCTACGACCCGTATTCGCACCGACAC | -0.503 ± 0.054 | -1.79 ± 0.18 |
| ACATTTGTTCATACAACCATAAAATGATAATTACACCCATAAATGGATCATTATCACCCCCAATTTAACTATAACGCTCTGATCATAGTCAGACCAACATTGCTACGACCCGTATTCGCACCGACAC | -0.469 ± 0.18 | -1.84 ± 0.28 |

| Sequence | relative integration efficiency (log2) [1] | relative integration efficiency (log2) [2] |
| --- | --- | --- |
| ACATTTGTTCATACAACCATAAAATGATAATTACACCCATAAATTCATAATTATCACACCCAATTTAACTATAACGCTCTGATCATAGTCAGACCAACATTGCTACGACCCGTATTCGCACCGACAC | -0.697 ± 0.075 | -2.52 ± 0.32 |
| ACATTTGTTCATACAACCATAAAATGATAATTACACCCATAAATTCATAATTATCACCCCCAATTTAACTATAACGCTCTGATCATAGTCAGACCAACATTGCTACGACCCGTATTCGCACCGACAC | -0.0689 ± 0.64 | -1.62 ± 0.43 |
| ACATTTGTTCATACAACCATAAAATGATAATTACACCCATAAATTCATCATTATCACACCCAATTTAACTATAACGCTCTGATCATAGTCAGACCAACATTGCTACGACCCGTATTCGCACCGACAC | -0.334 ± 0.16 | -2.35 ± 0.22 |
| ACATTTGTTCATACAACCATAAAATGATAATTACACCCATAAATTCATCATTATCACCCCCAATTTAACTATAACGCTCTGATCATAGTCAGACCAACATTGCTACGACCCGTATTCGCACCGACAC | 0.174 ± 0.27 | -1.97 ± 0.36 |
| ACATTTGTTCATACAACCATAAAATGATAATTACACCCATAAATTGATAATTATCACCCCCAATTTAACTATAACGCTCTGATCATAGTCAGACCAACATTGCTACGACCCGTATTCGCACCGACAC | 0.97 ± 0.12 | -0.912 ± 0.46 |
| ACATTTGTTCATACAACCATAAAATGATAATTACACCCATAAATTGATCATTATCACACCCAATTTAACTATAACGCTCTGATCATAGTCAGACCAACATTGCTACGACCCGTATTCGCACCGACAC | 0.604 ± 0.17 | -1.45 ± 0.36 |
| ACATTTGTTCATACAACCATAAAATGATAATTACACCCATAAATTGATCATTATCACCCCCAATTTAACTATAACGCTCTGATCATAGTCAGACCAACATTGCTACGACCCGTATTCGCACCGACAC | 0.514 ± 0.2 | -1.59 ± 0.39 |
| ACATTTGTTCATACAACCATAAAATGATAATTACCACCCATAAATTGATAATTATCACACCCATTTAACTATAACGCTCTGATCATAGTCAGACCAACATTGCTACGACCCGTATTCGCACCGACAC | -0.231 ± 0.23 | -1.38 ± 0.23 |
| ACATTTGTTCATACAACCATAAAATGATAATTACCACCCATACATTGATAATTATCACACCCATTTAACTATAACGCTCTGATCATAGTCAGACCAACATTGCTACGACCCGTATTCGCACCGACAC | -2.29 ± 0.1 | -3.31 ± 0.39 |
| ACATTTGTTCATACAACCATAAAATGATAATTACCACCCCTAAATTGATAATTATCACACCCATTTAACTATAACGCTCTGATCATAGTCAGACCAACATTGCTACGACCCGTATTCGCACCGACAC | -2.87 ± 0.85 | -4.21 ± 0.08 |
| ACATTTGTTCATACAACCATAAAATGATAATTACCACCCCTACATTGATAATTATCACACCCATTTAACTATAACGCTCTGATCATAGTCAGACCAACATTGCTACGACCCGTATTCGCACCGACAC | -3.25 ± 0.45 | -4.944 ± 0.019 |
| ACATTTGTTCATACAACCATAAAATGATAATTCACCCATAAATTGATAATTATCACACCCCAATTTAACTATAACGCTCTGATCATAGTCAGACCAACATTGCTACGACCCGTATTCGCACCGACAC | -0.502 ± 0.27 | -2.26 ± 0.18 |
| ACATTTGTTCATACAACCATAAAATGATAATTCACCCATCAATTGATAATTATCACACCCCAATTTAACTATAACGCTCTGATCATAGTCAGACCAACATTGCTACGACCCGTATTCGCACCGACAC | -2.51 ± 0.15 | -4.48 ± 0.28 |
| ACATTTGTTCATACAACCCTAAAATGATAATTACACCCATAAATGGATAATTATCACACCCAATTTAACTATAACGCTCTGATCATAGTCAGACCAACATTGCTACGACCCGTATTCGCACCGACAC | -2.78 ± 0.54 | -3.9 ± 0.37 |
| ACATTTGTTCATACAACCCTAAAATGATAATTACACCCATAAATGGATAATTATCACCCCCAATTTAACTATAACGCTCTGATCATAGTCAGACCAACATTGCTACGACCCGTATTCGCACCGACAC | -2.74 ± 0.46 | -3.89 ± 0.38 |
| ACATTTGTTCATACAACCCTAAAATGATAATTACACCCATAAATGGATCATTATCACACCCAATTTAACTATAACGCTCTGATCATAGTCAGACCAACATTGCTACGACCCGTATTCGCACCGACAC | -3.19 ± 0.38 | -5 ± 0.2 |
| ACATTTGTTCATACAACCCTAAAATGATAATTACACCCATAAATGGATCATTATCACCCCCAATTTAACTATAACGCTCTGATCATAGTCAGACCAACATTGCTACGACCCGTATTCGCACCGACAC | -3.98 ± 0.81 | -4.59 ± 0.14 |
